Assay [1] has as its target T1, SOC1 (SUPPRESSOR OF OVEREXPRESSOR OF CONSTANS 1) transcription factor (Arabidopsis thaliana, UniProt O64645 1-214, 35S-Met label in the pull-down assay (in vitro translated)).
T1 construct: Full-size MADS box transcription factor; In yeast two-hybrid it was fused to GAL4 AD or BD (pGADT7/pGBKT7); In BiFC it was fused to a half of EYFP; In the pull-down it was in vitro translated from pGADT7 and 35S-labeled; also called Arabidopsis SOC1; At2g45660
Briefly: BiFC (split EYFP fusions) in Arabidopsis protoplasts. The method, then: (§1) BiFC assays were carried out as described previously (Hong et al., J. Biol. Chem. 286, 1659-1668, 2011). A full-size SOC1 gene was fused in-frame to the 5′ end of a gene sequence encoding the C-terminal half of EYFP in the pSATN-cEYFP-C1 vector (E3082). Truncated SOC1 gene sequences were fused in-frame to the 5′ end of a gene sequence encoding the N-terminal half of EYFP in the pSATN-nEYFP-C1 vector (E3081). The expression constructs were cotransformed into Arabidopsis protoplasts. Expression of the fusion constructs was monitored by fluorescence microscopy using a Zeiss LSM510 confocal microscope (Carl Zeiss MicroImaging GmbH, Jena, Germany). The BdSOC1 gene constructs were prepared similar to the Arabidopsis SOC1 gene constructs and transiently expressed in Brachypodium protoplasts.

Assay [2] has as its target T2, BdSOC1 (Brachypodium distachyon SUPPRESSOR OF OVEREXPRESSOR OF CONSTANS 1) transcription factor (Brachypodium distachyon, 35S-Met label in the pull-down assay (in vitro translated)).
T2 construct: Fused to an EYFP half in BiFC; In vitro translated and 35S-labeled in the pull-down; also called Bradi1g77020; Brachypodium SOC1
Briefly: BiFC (split YFP fusions) in Brachypodium protoplasts. Here is the method: (a) in vitro pull-down assays. The BdSOC1 protein was prepared as recombinant BdSOC1-MBP fusion in E. coli cells. The ³⁵S-labeled BdSOC1 polypeptides were prepared by in vitro translation. Part of Coomassie-stained gel is shown (bottom panel). (b) BiFC assays. Partial YFP fusion constructs were transiently expressed in Brachypodium protoplasts. Scale bars=10 μm.
as §1

T1 sequence (O64645 whole entry, the tested form may be a part): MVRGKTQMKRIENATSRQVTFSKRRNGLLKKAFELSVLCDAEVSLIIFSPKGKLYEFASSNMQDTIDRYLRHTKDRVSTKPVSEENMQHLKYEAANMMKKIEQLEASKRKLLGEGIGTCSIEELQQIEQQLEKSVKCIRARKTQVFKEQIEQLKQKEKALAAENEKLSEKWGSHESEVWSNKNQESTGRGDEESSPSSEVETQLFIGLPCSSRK
T2 sequence (chain, as listed by the source limits assumed): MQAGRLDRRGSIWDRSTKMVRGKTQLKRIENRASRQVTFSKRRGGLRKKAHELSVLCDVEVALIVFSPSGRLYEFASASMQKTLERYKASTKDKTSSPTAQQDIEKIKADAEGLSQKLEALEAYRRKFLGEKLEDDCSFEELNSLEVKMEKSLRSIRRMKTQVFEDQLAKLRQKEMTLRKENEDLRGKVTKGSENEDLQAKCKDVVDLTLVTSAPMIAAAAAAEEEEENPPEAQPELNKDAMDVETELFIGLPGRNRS

B1: S-K truncated SOC1 form (peptide)
chain: VSEENMQHLKYEAANMMKKIEQLEASKRKLLGEGIGTCSIEELQQIEQQLEKSVKCIRARKTQVFKEQIEQLKQKEKALAAENEKLSEK
modifications: 35S-Met label in the pull-down assay (in vitro translated)
notes: It was fused to GAL4 domain or EYFP half in yeast and BiFC assays; also called S-K form; SOC1 a-siPEP
On to B1, for which, in assay [1], the binding result is “binds”.

B2: BdS-K truncated BdSOC1 form (peptide)
chain: TAQQDIEKIKADAEGLSQKLEALEAYRRKFLGEKLEDDCSFEELNSLEVKMEKSLRSIRRMKTQVFEDQLAKLRQKEMTLRKENEDLRGK
modifications: 35S-Met label in the pull-down assay (in vitro translated)
notes: An artificial start codon was added
Consider B2, for which the binding result in assay [2] is given as “binds”.

B3: BdS-IK truncated BdSOC1 form (peptide)
chain: KAHELSVLCDVEVALIVFSPSGRLYEFASASMQKTLERYKASTKDKTSSPTAQQDIEKIKADAEGLSQKLEALEAYRRKFLGEKLEDDCSFEELNSLEVKMEKSLRSIRRMKTQVFEDQLAKLRQKEMTLRKENEDLRGK
modifications: 35S-Met label in the pull-down assay (in vitro translated)
notes: An artificial start codon was added; also called BdS-MK2 (primer name)
On to B3, for which the binding result in assay [2] was “binds”.

B4: S-IK truncated SOC1 form (peptide)
chain: KKAFELSVLCDAEVSLIIFSPKGKLYEFASSNMQDTIDRYLRHTKDRVSTKPVSEENMQHLKYEAANMMKKIEQLEASKRKLLGEGIGTCSIEELQQIEQQLEKSVKCIRARKTQVFKEQIEQLKQKEKALAAENEKLSEK
modifications: 35S-Met label in the pull-down assay (in vitro translated)
notes: It was fused to GAL4 domain or EYFP half in yeast and BiFC assays; also called SOC1 a-siPEP
Consider B4, for which the binding result in assay [1] is reported as “binds”.
